Data as given in PMC8190095, “Structural basis for inhibition of the AAA-ATPase Drg1 by diazaborine” (Nature Communications, 2021).

Legend:
[1] = target: the molecule itself; test: cryo-EM structure; single-particle cryo-EM of full-length wild-type Drg1, 1.75 mg/ml, with 2 mM ATPγS and 200 µg/ml (740 µM) thieno-diazaborine 2b18; 20 mM HEPES-KOH, 150 mM KOAc, 5 mM Mg(OAc)2, 0.005% Tween-20, 1 mM DTT, pH 7.6; no symmetry imposed
[2] = target: T1, GST-Rlp24C fragment (C-terminal fragment of the substrate protein Rlp24) (yeast, UniProt Q07915 147-199); test: SPR; Biacore X100; 200 RU GST-Rlp24C amine-coupled on a CM5 chip, GST alone in the reference cell; 2 µM Drg1 with 1 mM ATPγS injected with or without 200 µg/ml diazaborine; 120 s association, 180 s dissociation; 20 mM HEPES-KOH, 150 mM KOAc, 5 mM Mg(OAc)2, 0.1% Tween-20, 1 mM DTT, pH 6.8; half-life from one-phase exponential decay; conditions: both partners purified
T1 construct: Rlp24, shuttling ribosome maturation factor of yeast, C-terminal fragment Rlp24C; The GST fusion was immobilised in SPR; also called Rlp24C-domain; source: purified
T1 sequence (looked up): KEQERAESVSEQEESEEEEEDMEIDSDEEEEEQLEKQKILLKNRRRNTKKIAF

B1: Drg1 (AAA-ATPase), full-length wild type (enzyme, yeast, UniProt P32794 1-780, looked up)
chain: MAPKSSSSGSKKKSSASSNSADAKASKFKLPAEFITRPHPSKDHGKETCTAYIHPNVLSSLEINPGSFCTVGKIGENGILVIARAGDEEVHPVNVITLSTTIRSVGNLILGDRLELKKAQVQPPYATKVTVGSLQGYNILECMEEKVIQKLLDDSGVIMPGMIFQNLKTKAGDESIDVVITDASDDSLPDVSQLDLNMDDMYGGLDNLFYLSPPFIFRKGSTHITFSKETQANRKYNLPEPLSYAAVGGLDKEIESLKSAIEIPLHQPTLFSSFGVSPPRGILLHGPPGTGKTMLLRVVANTSNAHVLTINGPSIVSKYLGETEAALRDIFNEARKYQPSIIFIDEIDSIAPNRANDDSGEVESRVVATLLTLMDGMGAAGKVVVIAATNRPNSVDPALRRPGRFDQEVEIGIPDVDARFDILTKQFSRMSSDRHVLDSEAIKYIASKTHGYVGADLTALCRESVMKTIQRGLGTDANIDKFSLKVTLKDVESAMVDIRPSAMREIFLEMPKVYWSDIGGQEELKTKMKEMIQLPLEASETFARLGISAPKGVLLYGPPGCSKTLTAKALATESGINFLAVKGPEIFNKYVGESERAIREIFRKARSAAPSIIFFDEIDALSPDRDGSSTSAANHVLTSLLNEIDGVEELKGVVIVAATNRPDEIDAALLRPGRLDRHIYVGPPDVNARLEILKKCTKKFNTEESGVDLHELADRTEGYSGAEVVLLCQEAGLAAIMEDLDVAKVELRHFEKAFKGIARGITPEMLSYYEEFALRSGSSS
notes: Drg1, hexameric type II AAA-ATPase of yeast (N-domain, D1 and D2 AAA-domains), full-length wild type; the atomic model covers amino acids 239-780 of each of the six monomers; Hexamer in the presence of nucleotide (ATPγS); also called Drg1 wild type; wild-type Drg1; source: overexpressed in yeast as GST-Drg1, purified (GSH-agarose, eluted by Prescission protease cleavage from the GST-tag)
stoichiometry N [1]: 6 | fold slower dissociation with diazaborine against without [2]: 2 fold
